Where “and” joins values, the source holds several entries; their conditions need not be identical. Identical values can stand only once.
Tests used:
[1] = molecular target: tissue factor (TF) antigen (UniProt P13726); test: SPR, Fab captured on anti-penta-His, TF as analyte; against wild-type D3H44 Fab
[2] = molecular target: tissue factor (TF) antigen (UniProt P13726); test: SPR, Fab captured on anti-penta-His, TF as analyte, 1:1 fit
[3] = molecular target: D3H44 light chain Q124E_V133G_S176D_T178E_T180E; test: LCCA (co-expression, SPR tag read-out), L1:L2 DNA 1:3 normalised to 1:1; competing light chain m7
[4] = molecular target: D3H44 light chain Q124E_V133G_S176D_T178E_T180E; test: LCCA (co-expression, SPR tag read-out), L1:L2 DNA 1:3 normalised to 1:1; competing light chain m8
[5] = molecular target: tissue factor (TF) antigen (UniProt P13726); test: SPR (ProteOn XPR36), Fab captured on anti-penta His surface, TF injected, 1:1 fit; batch C ('+'); reference wild-type D3H44 Fab
[6] = molecular target: tissue factor (TF) antigen (UniProt P13726); test: SPR (ProteOn XPR36), Fab captured on anti-penta His surface, TF injected, 1:1 fit; batch C ('+')
[7] = molecular target: tissue factor (TF) antigen (UniProt P13726); test: SPR (ProteOn XPR36), Fab captured on anti-penta His surface, TF injected, 1:1 fit
[8] = molecular target: tissue factor (TF) antigen (UniProt P13726); test: SPR (ProteOn XPR36), Fab captured on anti-penta His surface, TF injected, 1:1 fit; reference wild-type D3H44 Fab
[9] = molecular target: tissue factor (TF) antigen (UniProt P13726); test: SPR (ProteOn XPR36), Fab captured on anti-penta-His surface, TF injected as analyte, 1:1 fit; batch C (marked +)
[10] = molecular target: tissue factor (TF) antigen (UniProt P13726); test: SPR (ProteOn XPR36), Fab captured on anti-penta-His surface, TF injected as analyte, 1:1 fit; batch C (marked +); reference wild-type D3H44 Fab
[11] = molecular target: tissue factor (TF) antigen (UniProt P13726); test: SPR (ProteOn), Fab captured via anti-penta-His, TF injected, 1:1 fit
[12] = molecular target: tissue factor (TF) antigen (UniProt P13726); test: SPR (ProteOn), Fab captured via anti-penta-His, TF injected, 1:1 fit; reference wild-type D3H44 Fab
[13] = molecular target: tissue factor (TF) antigen (UniProt P13726); test: SPR, ProteOn XPR36; His-tagged Fab captured on anti-penta-His, TF injected; 1:1 fit; batch C (+)
[14] = molecular target: tissue factor (TF) antigen (UniProt P13726); test: SPR as for KD; reference: wild-type D3H44 Fab; batch C (+)
[15] = molecular target: tissue factor (TF) antigen (UniProt P13726); test: SPR, Fab captured on anti-penta-His, TF as analyte, 1:1 fit; estimated (*) from Fab differing only in L chain tag
[16] = molecular target: tissue factor (TF) antigen (UniProt P13726); test: vs wild-type D3H44 Fab (estimated wt KD […]); SPR; estimated (*) from Fab differing only in L chain tag
[17] = molecular target: D3H44 light chain S131K (Kabat), N-terminal HA or FLAG tag; test: LCCA co-expression, competing light chain m37, L1:L2 DNA 1:3 normalized to 1:1, SPR tag read-out
[18] = molecular target: D3H44 light chain Q124E_T180E (Kabat), N-terminal HA or FLAG tag; test: LCCA co-expression, competing light chain m36, L1:L2 DNA 1:3 normalized to 1:1, SPR tag read-out

A change in median KD compared to wild type, -(log(KD design)-log(KD wt)) [1] of -0.07 and a Kd [2] of 0.18 nM were found for “D3H44 Fab heterodimer, H1 L124R_S186K / L1 V133G_S176D_T178D_T180E (H1L1 Fab of LCCA Set # 9471 and 9473)” in this work.
A change in median KD compared to wild type, -(log(KD design)-log(KD wt)) [1] of -0.28 and a Kd [2] of 0.3 nM were found for “D3H44 Fab heterodimer, H1 L45P_L143E_K145T_Q179E / L1 P44F_Q124R_Q160K_T178R (H1L1 Fab of LCCA Set # 9754)” in this work.
In the case of D3H44 Fab heavy chain L124R_D146N_Q179K, the H2L2:H2L1 normalized median ratio [3] is reported as 90 parts of 100 and the H2L2:H2L1 normalized median ratio [4] is reported as 89 parts of 100.
A Change in median values of KD of h1l1 Fab heterodimer compared to wild type (-(log(KD design)-log(KD wt))) [5] of 0.02 and a Kd [6] of 0.15 nM were found for “D3H44 Fab heterodimer, H1 S186K / L1 Q124E_T178E_T180E (H1L1 Fab of LCCA Set # 9852)” in this work.
A Kd [7] of 0.22 nM and a Change in median values of KD of h1l1 Fab heterodimer compared to wild type (-(log(KD design)-log(KD wt))) [8] of -0.15 were found for “D3H44 Fab heterodimer, H1 L124R_Q179K / L1 Q124E_V133G_S176D_T178E_T180E (H1L1 Fab of LCCA Set # 9388)” in this work.
A Kd [7] of 0.22 nM and a Change in median values of KD of h1l1 Fab heterodimer compared to wild type (-(log(KD design)-log(KD wt))) [8] of -0.15 were found for “D3H44 Fab heterodimer, H1 L124R_S186R / L1 V133G_S176D_T178E_T180E (H1L1 Fab of LCCA Sets # 9541, 9544, 9542)” in this work.
A Change in median values of KD of h1l1 Fab heterodimer compared to wild type (-(log(KD design)-log(KD wt))) [5] of 0.13 and a Kd [6] of 0.12 nM were found for “D3H44 Fab heterodimer, H1 Q179K / L1 Q124E_S131T_T178F_T180E (H1L1 Fab of LCCA Sets # 9778, 9777)” in this work.
A Kd [9] of 0.24 nM and a Change in median KD of h1l1 Fab heterodimer compared to wild type (-(log(KD design)-log(KD wt))) (log(KD) difference) [10] of -0.18 were found for “D3H44 H1L1 Fab heterodimer, H1 Q39R_H172R_Q179K, L1 Q38E_Q124E_Q160E_T180E” in this work.
A Kd [11] of 0.23 nM and a change in median KD compared to wild type, -(log(KD design)-log(KD wt)) [12] of -0.16 were found for “D3H44 Fab heterodimer (H1L1) of LCCA Sets # 9419, 9420, 9423, 9425, 9426: H1 L124R_Q179K, L1 V133G_S176D_T178E_T180E” in this work.
A Kd [13] of 0.17 nM and a change in median KD compared to wild type, -(log(KD design)-log(KD wt)) [14] of -0.02 were found for “D3H44 Fab heterodimer, H1L1 of LCCA Sets # 9807 and 9808 (H1 Q179R; L1 Q124E_S176L_T180E)” in this work.
A change in median KD compared to wild type, -(log(KD design)-log(KD wt)) [1] of -0.15 and a Kd [2] of 0.22 nM were found for “D3H44 Fab heterodimer, H1 L124R_Q179K / L1 Q124E_V133G_S176D_T178E_T180E (H1L1 Fab of LCCA Set # 9392, 9394, 9395, 9376, 9380 and 9384)” in this work.
A Kd [15] of 0.16 nM and a change in median KD compared to wild type, -(log(KD design)-log(KD wt)) [16] of 0 were found for “H1L1 Fab heterodimer of LCCA sets 9140, 9142, 9144 and 9146 (D3H44 Fab, H1 L124E_K145T_Q179E, L1 S131K_V133G_S176R; L chain tag differs from the measured Fab)” in this work.
“D3H44 Fab heavy chain S186R (Kabat), C-terminal ABD2-His6 tag” was tested, and the H2L2:H2L1 normalized median ratio [17] was 4 of 100 and the H2L2:H2L1 normalized median ratio [18] was 96 of 100.
A Change in median values of KD of h1l1 Fab heterodimer compared to wild type (-(log(KD design)-log(KD wt))) [5] of 0.03 and a Kd [6] of 0.15 nM were found for “D3H44 Fab heterodimer, H1 Q39R_H172R_S186R / L1 Q38E_Q124E_Q160E_T180E (H1L1 Fab of LCCA Set # 9824)” in this work.
In the case of “D3H44 Fab heterodimer (H1L1) of LCCA Sets # 9120, 9121: H1 L124E_H172T, L1 V133G_N137K_S174R_S176R”, the Kd [11] is reported as 0.13 nM and the change in median KD compared to wild type, -(log(KD design)-log(KD wt)) [12] is reported as 0.03 and 0.08.

From US11306156
